Laboratory results taken from the supplement of paper PMC9170038.

System: K4 kissing-loop RNA reporter
Assay: apparent KD of K4 kissing-loop reporter; higher = weaker reporter binding
Conditions: Eterna round: R107
Procedure: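 RNA-MaP round R107: designed RNA switches with theophylline, tryptophan, arginine or FMN aptamers are transcribed on-chip within common flanks. They are titrated with a labelled K4 kissing-loop RNA reporter in RNA-MaP buffer (100 mM Tris pH 7.5, 80 mM KCl, 4 mM MgCl2), without ligand or with the indicated ligand. Median apparent KD per design.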

[1] = input ligand: theophylline 20 uM
[2] = input ligand: tryptophan 2.4 mM
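Further: bound reporter read as fluorescence of individual clusters on recovered sequencing chips by microscopy, with normalized cluster intensities fitted with a binding model.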

Sequence	apparent KD of K4 kissing-loop reporter (input ligand: FMN 200 uM) [nM]	apparent KD of K4 kissing-loop reporter (input ligand: arginine 13.2 mM) [nM]	apparent KD of K4 kissing-loop reporter (input ligand: none) [nM]	apparent KD of K4 kissing-loop reporter [1] [nM]	apparent KD of K4 kissing-loop reporter [2] [nM]
GGAUCCACCAGUGAUGUUGGAGAAAACUCAAAGGAUAUGACGAAAGUCAGAAGGUUGUAGACUGGACAAAGUCCGGUCGGAUCCA [FmnA 19 A30+U56]	450	504	650	613	475
GGCACUUUUGCUUGGAACCGUCAAGCUCUUUAGGAUAUCUGGAAACAGAGAAGGAAAGACCUACAGAGUGAUGUUCUGCGUGCCU	332	133	273	183	144
AAGCAGUCACUCAAAGCCAUCGAAGAUGGACGAGGACCGGUACGGCCGCCACUCGGAGUGAUGUUCCGAAGACUGCAAAAUAAAA	408	295	304	511	230
UGCACGGGCUCGGCCGCCACUCCAGCGGGUCGCAAGGUCCGCUACUGAGUGAUGUUCGGUUGGAGGAGGACCGGGAGCCCGUGCG [#2 Exclusion - Tryptophan B Attempt #31 (HarryS)]	146	114	133	139	126
GGGCGUGGCGCGGCCGCCACUGGGCCUGGGCGCUCGCUGAGUGAUGUUCGUCGGCGGUUGGGUCGUAGGACCGGGUGCUGGUUGG [BDazzled - #8 SS Tryptophan B]	402	199	516	281	253
UGAUGUUUAGGUCACCCAGUGAUGUUGGAAGGAGCGUGCGAAAGCACAGGUAGGUCGCCAAUCUCCUUGUGACCUGAGCAUCUAA [#SwitchBubble 14 #K4Early]	976	787	1050	979	854
UGUCAUUGGUCGGCCGCCACUUCAUAAAGAGUGAUGUUCUGAAAGACGGAUCGAAAGAUCUGUCGAAGGACCGGGACCGAUGACU [FiskerMod 1 - Jieux - Same State - Tryptophan B]	1160	1200	2080	1430	236
UACUAUAGUGAUGUUAUAGAUAAAACAGAUACCAGUGUUACAUAACACCCUUGGCAGCUGAAAAGGGAAAGUAUAAAUGUGUAUU [AstrosSSTHe-A#1newdesignED]	156	127	133	125	129
GUGCAAAGCACCGGCACGAGCAGCCUAAAGGAGGAUAUGACGAAAGUCAGAAGGUCUAGUGAUGUUAGGCCUUGCUUGAGUCGAA [Omei KL FMN A Exc B v3]	288	278	402	405	327
AAAAUAAGCCAGUGAUGUUGGUAGCCAGAUACCAGCGACGAAAGUCGCCCUUGGCAGCUGUGGACGUACAAAAUAAGUACGUCCU	1010	751	928	711	723
GCCGUAGAUUGAAGGAGCGGCAUUAACGAUGUUCUGGUAGUGAUGUUACCUCAGCAGACAUGCCAGGUAGGUCGCAAUCUACGGC	72.5	74.6	93.6	76.6	77
UGAUACCAGACGGCCGCCACUUCCGUAAGUCAAAGACUUACCAAGGGAAUCGUCCAGUGAUGUUGGAGGACCGGGUCUGGUAUCU [FiskerMod 6 - Jieux - Exclusion - Tryptophan B]	960	744	1260	959	788
GACAUCUAUCGCCGAUAGUGUUUAUCUUGGGAGGAUAUGUCAGCGGACAGAAGGCCCAGUGAUGUUGGGUAGAUGACCGUUGCUU [Edbiza]	242	114	135	127	120
AAAAUUGCGGUUUUAAGAUCUUUUUGCUUACGAGGACCGGUACGGCCGCCACUCGAGUCAAGUGAUGUUUGAUUUUCUAUUAUUA [JR_ExcTryptoA_Sub015]	92.4	179	136	189	71.6
CGUAGUUGGGCGGCCGCCACUUGAACAGCUUUGCCAAAGGCAGAGCUCUAGAGUGAUGUUCUGGCAAGGACCGGGUCCAACUACA [#02 K4 Tryptophan B Same State]	1270	777	1240	822	423
UGUACCGAGGCAGGAUAUGUCGUCGAAAGACGAAAUGGAGUGAUGUUCCUUAAACUGCGAAAGCAGACAGAAGGGUCUUGGUACU [FmnBS 29 G10+U76]	132	178	181	167	171
CCAUCGCUAUUCGAUACCAGUCAGGAGGUCUGUGACCUCCUAAUGGAGUGAUGUUCCUUAGACCCUUGGCAGCGAAUAGUGAUGG [#02 K4 Theophylline B Same State]	203	196	221	141	202
CGCCGCAAGGCGAGCGCUCCCACUCCGGAAGGAGCGCCCGUAAGGGCAGGUAGGUCGCCGGAGUGAUGUUCCGGUGGAGGGCUCG [#2 Exclusion - Arginine A Attempt #14 (Inspired by Omei)]	226	224	469	33	184
UGUACCGAGACAGGAUAUGUCGUCGAAAGACGAAAUGGAGUGAUGUUCCUUAAACUGCGAAAGCAGACAGAAGGGUCUUGGUACU [FmnBS 29 A10+U76]	132	172	163	165	176
UCGAAGGAUGGAAGGAGCGCUCGUCAGCCCUGCGAGUGAUGUUCGUGGGUAAAUAGUCGCGAGCAGGUAGGUCGCCAUCUUGAGC [Ritera]	128	111	130	111	116
AGAGUUAUGCGAGGAUAUGCAGUUAGUACUCAAAGAGUACUAACGCAGAGUGAUGUUCUGUGAAACGCAGAAGGUGCAUAACUCA [Omei KL FMN B SS B v4]	161	509	549	480	485
GCUAUGGUAGGAAGGAGCGCUUAAUUACUAAUAAGAGUGAUGUUCGAUAGUAGGUAUUUAUAGCAGGUAGGUCGCCUACUAUAGC [KL-Arg B23]	200	171	176	244	174

Sequence	apparent KD of K4 kissing-loop reporter (input ligand: FMN 200 uM) [nM]	apparent KD of K4 kissing-loop reporter (input ligand: arginine 13.2 mM) [nM]	apparent KD of K4 kissing-loop reporter (input ligand: none) [nM]	apparent KD of K4 kissing-loop reporter [1] [nM]	apparent KD of K4 kissing-loop reporter [2] [nM]
AUUGUACAAGUGAUGUUUGUUUUUUCCGAAGGAGCGUCUAAUAAGACAGGUAGGUCGCGGAUUCUCUUAAUAAUCAGGUCAUUAA [JR_Nu_ExcArginiA_Sub020]	364	275	305	281	221
GCGGGCGGCUGAAGGAGCGGGCGGGCCCGAGUGAUGUUCGGGUGGGCUGUGAGGCCCGGAGCCCAGGUAGGUCGCGGUUCCGCCC [#2 Same State - Arginine B Attempt #26 (HarryS)]	157	107	167	146	133
UUAUAUCUCUGACUUUCACUUUGCGUAUCUGAGGAUAUCUGAAUUCAGAGAAGGCAGUGAUGUUGCUUUGCUGUGUGUCUGAGAA [AK2 Exc FMN A]	702	464	526	499	372
UUCGAUCAGUGAUGUUGAUCAUCAGUCGAAGGAGCGCUAGAGAUAGCAGGUAGGUCGCGACUGCAAGGUGUGAGAACACCUCGAA [Arg A SS t9a]	457	358	487	444	255
GCGCGUGUUAAAGGAUAUAGCAGGUGAUACAAGAAAGUGAGUGAUGUUUAUGUAGAUGAUGAUAUGUUAGAAGGUUAACAAGCGC [abcdefghijklmnopq]	778	606	847	739	605
GGAUAGGACAGAGGAUAUGGGCUAGGCAAGAAUAACUUGUCUAGCAAAUCCAUGAGGAGUGAUGUUCCAGAAGGUUGUCCUAUCG [FmnBX 1 U75]	284	108	92.3	120	87.8
AAAAUAAAGCAGUCAAUCGGAGUGAUGUUCCGAGGACCGGUACGGCCGCCACUCGAGAGUCCAAAGGACUCAUGGCGAGACUGCA [#SwitchBubble 17 #K4Early]	97	94.8	93.2	92.6	90.1
CGCAAGCAGCCAGUGAUGUUGGCCGCCUUGCGAGGACCGGUACGGCCGCCACUCGAAGGCGGCUAGUAGUAGUCUGUCUAACGGA [KL-XTryp-A16]	104	107	112	74	184
CGCUCGAAAAUUAAGUGAGUGAUGUUCACUCGAGGACCGGUACGGCCGCCACUCGUCUUACGUUGAGACACUGCUCGUACUCAUA [theeternabot_exclusion_KL_Trp_A_38]	683	674	900	722	498
GAGCCAGAAGUUGCUGCGGGUUUCAGAGAUACCAGCCGUAUUGUAGGCCCUUGGCAGCUCGAGUGAUGUUCGAGCCGCUUCUAGC [Inma]	128	95.4	120	115	114
UGACUGGACUGAAGGAGCGCUAAACUCCUAGUGAUGUUAGGAAAACGAGACAAAGUCUCGAGGCAGGUAGGUCGCAGUCUAGUCU [ArgBS 18 #SwitchBubble #StaticStem]	123	120	136	128	114
CGAGUGAUGUUCGUUCGUUUAUUUGGGUGACAGGAUAUGCGGAAACGCAGAAGGGUCACCUUCGGGUUACCCGAAUUAACGUUAU [#09 K4 FMN A Exclusion]	724	520	688	587	717
UGAUAGGACAGAAGGAGCGGUAGUGAUGUUACCAAAAGUAUAAGGUGUCAAAAGACACCCUACCAGGUAGGUCGCUGUCCUAUCU	292	295	367	506	286
AGUGAUGUGGGAAGGAGCGGUAGAUGAGUUCAGUGAUGUUGAAGUGAUGCUGUAGUGAUGUGCCAGGUAGGUCGCCUAGAUGUUA [KL-XARG B24]	353	162	258	130	207
CCAUCGCUAUUCGAUACCAGUCAUAAAAUCUUUGGUUAAAUAAAGGAGUGAUGUUCCAAAGACCCUUGGCAGCGAAUAGUGAUGG [Theophylline B K4 6]	670	624	695	887	780
UAUUAAUAAUUAUUCUAGUGAUGUUAGAUACGAGGACCGGUACGGCCGCCACUCGCUUAUUGGUUUAUAAAUUUUAUAUUAUUUA [JR_SSTryptoA_Sub017]	185	207	186	208	164
AAAAUAAACCAGUGAUGUUGGUAGCCAGAUACCAGCGACGAAAGUCGCCCUUGGCAGCUGUGGACGUACAAAAUAAGUACGUCCU	248	232	268	238	230
UGACUGGACUGAAGGAGCGGGAAACUCCUAGUGAUGUUAGGAAUACGAGACAAAGUCUCGACCCAGGUAGGUCGCAGUCUAGUCU [ArgBS 17 #SwitchBubble #StaticStem]	121	93.3	108	116	119
GCAGUCAAUCGACCACGAAAGUGGAUGGAUACCAGCCCGAAACCGGGCCCUUGGCAGCCAGUGAUGUUGGAAGACUGCUUUAAAA [#SwitchBubble 14 #K4Late]	371	372	548	216	660
GGGUGGCAGGCGGCCGCCACUCUGAGGGUCCACAGUGAUGUUGUGGGCGCGUAAGCGUCUUCAUAGAGGACCGGGUUUGUUGUUC [Same State Tryptophan B GF 24]	422	308	454	403	338
UAGUCCUAGUGAUGGUCAUCACGUGGCGGGCGAGGACCGGUACGGCCGCCACUCGACUUUGCAGUGAUGUUGCAAACCGGACAAU [Exclusion - Tryptophan A (Freestyle 20)]	144	134	132	136	191
